# US20230322857A1, “RECOMBINANTLY ENGINEERED POLYPEPTIDES CAPABLE OF RECYCLING NONCANONICAL COFACTORS” (The Regents of the University of California, priority 2022, published 2023)
# Key:
# [1] = Steady-state kinetics of TS-PTDH variants with NMN^+; format: biochemical; conditions: for Km / NMN^+ kcat: 100 mM MOPS, pH 7.25, 10 mM sodium phosphite; for increased catalytic efficiency (kcat/Km) for NMN^+ compared to TS-PTDH A155N: vs parent enzyme TS-PTDH A155N
# Method: (§1) Purification and Characterization of TS-PTDH Variants. The E. coli BL21(DE3) strains harboring pQElac plasmids encoding the TS-PTDH or TS-PTDH variants were grown in 2×YT media with kanamycin and ampicillin at 37° C. The IPTG-inducible expression, Ni-affinity purification, and protein concentration determination was conducted as described above.
# (§2) The steady-state kinetic parameters toward the coenzymes were measured by spiking purified protein into a 100 μL reaction mixture containing 100 mM MOPS, pH 7.25, 10 mM sodium Pt, and varied cofactor concentrations from 0.02 mM to 5 mM at 25° C. The kinetic parameters were measured by monitoring the […] of reduced coenzyme at 340 nm. Data were fitted to the Michaelis-Menten equation to generate estimates of KM and kcat values.
# [2] = Steady-state kinetics of TS-PTDH variants with NADP^+; format: biochemical; conditions: 100 mM MOPS, pH 7.25, 10 mM sodium phosphite, varied cofactor concentrations; n = 3
# Method: as §1, §2
# [3] = Steady-state kinetics of TS-PTDH variants with NAD^+; format: biochemical; conditions: 100 mM MOPS, pH 7.25, 10 mM sodium phosphite, varied cofactor concentrations; n = 3
# Method: as §1, §2
# E. coli SHuffle strain [4] = assay: Recapitulation of growth restoration with TS-PTDH variants in SHuffle strain; format: cell-based, Escherichia coli; conditions: spotted onto agar selection plates
# Method: Selection of TS-PTDH Library. A total of 50 μL pre-made SHuffle/pLZ311 or SHuffle/pLZ312 electro-competent cells were transformed with 2 μL TS-PTDH A155N-E175-A176-L208 NNK library DNA (pLZ316) via electroporation as described above. After rescue in SOC media for 1 h, cultures were combined in 10 mL 2×YT with 10 g/L glucose, 0.5% arabinose, kanamycin and ampicillin. 0.2, or 1 μL of culture was immediately taken from the culture and plated on an 2×YT agar plates with kanamycin and ampicillin. The plate was incubated at 37° C. overnight, and the number of colonies formed was counted to estimate the library size. The liquid cultures were incubated at 37° C. with shaking for 10 h. Cells (1 mL) were washed 3 times and re-suspended in M9 Buffer. Targeted serial dilutions of cells were prepared in M9 buffer and 5 μL aliquots were dispensed in series on an agar plate of M9 selection media containing 0.5 mM diamide, 5 or 1 g/L yeast extract, 10 g/L glucose, 0.5% arabinose, 0.5 mM IPTG, 10 g/L sodium phosphite, kanamycin, ampicillin, and 5 mM NMN^+. Selection plates were incubated at 37° C., and photographs were taken to document growth progress. The independent transformants sampled was calculated as 2.4×10^6 and 2.5×10^6 colonies when plated on 5 and 1 g/L yeast extract, respectively. TS-PTDH and the template of the library, TS-PTDH A155N, were cultured in the same conditions as controls. The colonies were numbered by the order of appearance. The selected cells were re-streaked on fresh agar plate with identical media and incubated until single colonies formed on the plate. Variants that cannot forma single colony may be false positives. After extracting the plasmids from each re-streaked colony, the chosen TS-PTDH variants were amplified and moved into the pQElac vector containing a N-terminal 6×His tag for protein purification and characterization. […] 2 μL of a serial dilution of cells were deposited onto a growth selection plate and grown at 37° C.
# [5] = BNA(H)-mediated PTDH biotransformation with TsOYE; format: biochemical
# Method: BNA(H)-Mediated PTDH Biotransformation. Reactions with BNA^+, see FIG. 10D, contained 100 mM MOPS-NaOH at pH 7.6, 10 mM KIP, 100 mM sodium phosphite, and 2% v/v DMSO. BNA^+Cl^−, prepared by refluxing equimolar amounts of nicotinamide and benzyl chloride in acetonitrile overnight, followed by precipitation with diethyl ether on ice was supplied to the reactions at final concentrations of 0, 5, 10, or 20 mM. Reactions were initiated by spiking TsOYE and the appropriate TS-PTDH variant to a final concentration of 10 μM, each. Reaction mixtures were incubated at 30° C. on a Thermomixer C (Eppendorf) with shaking at 900 rpm for 24 h, extracted with 500 μL ethyl acetate containing 5 mM n-dodecane, and analyzed by GC-FID. The cycling system with no BNA was used to determine the background activity of the cycling systems. This value was subtracted from the final levodione concentrations in the 5-, 10-, and 20-mM samples to determine the BNA(H)^− specific levodione production. Concentrations of levodione product were determined using a calibration line (0-10 mM, 6 levels, using n-dodecane as internal standard). The y-intercept of the calibration line was forced through 0.
# For BNA(H)-mediated reactions, gas chromatography analyses were performed on a GC-2010 (Shimadzu, Japan) equipped with an AOC-20i auto injector and a flame ionization detector (FID), using a CP-Sil 5 column (25 m×0.25 mm×[…]). 1 μL of sample was injected with a split ratio of 100:1 and injector at 340° C. The FID was maintained at 360° C. Nitrogen was used as the carrier gas, with a linear velocity of 30 cm/s. The oven was held at 135° C. for 1 min, ramped at 15° C./min to 215° C., then 30° C./min to 345° C., and held at 345° C. for 1 min.
# Expression and Purification of Proteins for BNA(H)-Mediated Biotransformation Reactions. E. coli BL21(DE3) strains were transformed with the plasmids containing the TS-PTDH variants and grown on LB-agar plates containing ampicillin at 37° C. overnight. An overnight culture, 15 mL LB supplemented with ampicillin, was inoculated with a single colony, and grown at 37° C., 170 rpm overnight. 2 L baffled shake-flasks with 250 mL of 2×YT media containing 200 μg/mL ampicillin, were inoculated with the overnight culture, grown at 37° C., 170 rpm until OD600 of ˜1.0, induced with IPTG (0.5 mM), and grown at 30° C. and 170 rpm for 24 h. Cells were harvested by centrifugation at 18,000×g, 4° C., 10 min and stored at −20° C. until purification.
# The pellet was resuspended in four volumes loading buffer (50 mM sodium phosphate, 300 mM sodium chloride, 10 mM imidazole, pH 7.7), and lysed on ice by sonication (Branson sonifier 250; 15 min total, 40% duty cycle, output control 3.5, 2 mm tip). The lysate was clarified (21,000×g, 4° C., 30 min followed by 0.2 μm filtration), and loaded (1 mL/min) onto a Nickel-HisTrap FF crude (1 mL) column, washed with loading buffer (12 column volumes, CV), followed by a step with 10% elution buffer (loading buffer containing 250 mM imidazole; 12 CV). The protein was then eluted with 100% elution buffer and collected in fractions of 0.5 mL. Fractions containing protein were combined and dialyzed against ice-cold dialysis buffer (50 mM sodium phosphate, pH 7.7, 800 mL); the buffer was renewed after the first 2 h of dialysis. Following the dialysis, the protein was mixed with glycerol (20% v/v final concentration). Enzyme concentrations were estimated by the absorbance at 280 nm (non-denatured protein), using predicted extinction coefficients (wild type and LY-13: 26470, LY-7: […]; web.expasy.org/protparam/). The protein was aliquoted, flash frozen in liquid nitrogen, and stored at −80° C. until use. […]
# E. coli SHuffle strain [6] = assay: GDH-Gor coupled growth rescue in SHuffle strain; format: cell-based, Escherichia coli; conditions: 0.5 mM diamide, NMN^+ 0, 2, 4 and 6 mM
# Method: Culture conditions for GDH-Gor coupled growth rescue in SHuffle strain. The electro-competent cells of SHuffle harboring pLZ311 or pLZ312 were made as follows: The SHuffle cells were cultured in 200 mL SOB media with spectinomycin at 30° C. with shaking until OD600 reached 0.4-0.6. The culture was chilled on ice for 15 min and the cells were pelleted at 4° C., 4,000×g. Collected cells were washed with 10% glycerol in water (sterile, ice cold) and resuspended with 5 mL of 10% glycerol in water (sterile, ice cold), and stored as 50 μL aliquots at −80° C.
# Glucose facilitator (encoded by glf) was used for uptake of unphosphorylated glucose into the cells. The co-transformation of Bs gdh and Zm glf was performed as follows: Thaw SHuffle/pLZ311 or SHuffle/pLZ312 electro-competent cells on ice, add 1 μL Bs gdh (pEK101 or pLZ210) and 1 μL Zm glf(pSM109) plasmid DNA to 50 μL competent cells, mix, and electroporate. Cells were recovered with 1 mL SOC at 37° C. with shaking for 1 h. The cells were added to 10 mL 2×YT with 10 g/L glucose, 0.5% arabinose, kanamycin, chloramphenicol, and ampicillin. After incubation at 37° C. with shaking for 10 h, 1 mL cells were washed 3 times and re-suspended in M9 buffer (1×BD Difco M9 Salts). Targeted dilutions after cells reached density of OD600 0.6 were prepared in M9 buffer and 5 μL aliquots were dispensed in series on an agar plate of M9 selection media containing 0.5 mM diamide, 1 g/L yeast extract, 10 g/L glucose, 0.5% arabinose, 0.5 mM IPTG, ampicillin, kanamycin, chloramphenicol and serial NMN concentrations of 0, 2, 4 and 6 mM. Selection plates were incubated at 37° C., and photos were taken to document growth progress.
# [7] = varied cofactor concentrations, n = 3
Molecule,Km ([1]; enzyme could not be saturated) [µM],increase in catalytic efficiency for NMN^+ compared to TS-PTDH (wild type enzyme) ([1]; vs TS-PTDH) [fold],Km [2] [µM],NADP^+ kcat [2] [s⁻¹],Km [3] [µM],NAD^+ kcat [3] [s⁻¹],"growth restoration, co-expression with NMNH-specific Gor Ortho (E. coli SHuffle strain [4])","Km [1, 7] [µM]","NMN^+ kcat [1, 7] [s⁻¹]",increased catalytic efficiency (kcat/Km) for NMN^+ compared to TS-PTDH A155N [1] [fold],activity / cycling with BNA^+ compared to wild type [5],"response of biotransformation efficiency to BNA^+ concentration ([5]; 0, 5, 10, or 20 mM BNA^+)","utilization of the BNA^+ pool relative to the wild type protein ([5]; 20 mM BNA^+ supplementation, TsOYE, 24 h)",cell growth of SHuffle strain harboring Gor Ortho with the NMN^+-reducing enzyme (E. coli SHuffle strain [6])
TS-PTDH A155N: Pseudomonas stutzeri phosphite dehydrogenase with A155N substitution (SEQ ID NO:3) (protein) MLPKLVITHRVHEEILQLLAPHCELITNQTDSTLTREEILRRCRDAQAMMAFMPDRVDADFLQACPELRVIGCALKGFDNFDVDACTARGVWLTFVPDLLTVPTAELAIGLAVGLGRHLRAADAFVRSGKFRGWQPRFYGTGLDNATVGFLGMGNIGLAMADRLQGWGATLQYHEAKALDTQTEQRLGLRQVACSELFASSDFILLALPLNADTLHLVNAELLALVRPGALLVNPCRGSVVDEAAVLAALERGQLGGYAADVFEMEDWARADRPQQIDPALLAHPNTLFTPHIGSAVRAVRLEIERCAAQNILQALAGERPINAVNRLPKANPAAD,> 5000,~30,630 ± 70,0.88 ± 0.08,80 ± 10,1.46 ± 0.13,restored growth at a low level,,,,,,,
"LY-6: phosphite dehydrogenase variant with A155N, E175Q, A176S (SEQ ID NO:4) (protein) MLPKLVITHRVHEEILQLLAPHCELITNQTDSTLTREEILRRCRDAQAMMAFMPDRVDADFLQACPELRVIGCALKGFDNFDVDACTARGVWLTFVPDLLTVPTAELAIGLAVGLGRHLRAADAFVRSGKFRGWQPRFYGTGLDNATVGFLGMGNIGLAMADRLQGWGATLQYHQSKALDTQTEQRLGLRQVACSELFASSDFILLALPLNADTLHLVNAELLALVRPGALLVNPCRGSVVDEAAVLAALERGQLGGYAADVFEMEDWARADRPQQIDPALLAHPNTLFTPHIGSAVRAVRLEIERCAAQNILQALAGERPINAVNRLPKANPAAD",,,50 ± 10,0.95 ± 0.05,110 ± 10,1.04 ± 0.08,,1100 ± 100,0.18 ± 0.01,~17,,,,
"LY-7: phosphite dehydrogenase variant with A155N, E175W, A176G, L208V (SEQ ID NO:5) (protein) MLPKLVITHRVHEEILQLLAPHCELITNQTDSTLTREEILRRCRDAQAMMAFMPDRVDADFLQACPELRVIGCALKGFDNFDVDACTARGVWLTFVPDLLTVPTAELAIGLAVGLGRHLRAADAFVRSGKFRGWQPRFYGTGLDNATVGFLGMGNIGLAMADRLQGWGATLQYHWGKALDTQTEQRLGLRQVACSELFASSDFILLAVPLNADTLHLVNAELLALVRPGALLVNPCRGSVVDEAAVLAALERGQLGGYAADVFEMEDWARADRPQQIDPALLAHPNTLFTPHIGSAVRAVRLEIERCAAQNILQALAGERPINAVNRLPKANPAAD",,,110 ± 10,0.56 ± 0.03,750 ± 30,0.71 ± 0.04,,1400 ± 100,0.16 ± 0.01,~11,enhanced activity for BNA^+ reduction,cofactor dose-dependent response,improved utilization of the BNA^+ pool,
"wild type Bs GDH: wild type Bacillus subtilis glucose dehydrogenase, reduces NAD(P)^+ but not NMN^+ (protein, UniProt P12310 1-261, looked up) Glucose 1-dehydrogenase: MYPDLKGKVVAITGAASGLGKAMAIRFGKEQAKVVINYYSNKQDPNEVKEEVIKAGGEAVVVQGDVTKEEDVKNIVQTAIKEFGTLDIMINNAGLENPVPSHEMPLKDWDKVIGTNLTGAFLGSREAIKYFVENDIKGNVINMSSVHEVIPWPLFVHYAASKGGIKLMTETLALEYAPKGIRVNNIGPGAINTPINAEKFADPKQKADVESMIPMGYIGEPEEIAAVAAWLASKEASYVTGITLFADGGMTQYPSFQAGRG",,,,,,,,,,,,,,did not support cell growth
